Data from patent publication US20110008345A1 (GlaxoSmithKline, published 2011).
Positions count from the first letter of the chain named. Names and notes keep the numbering of the source. Values joined by “and” are separate entries in the source; they are usually repeats but may differ in a detail not shown here. Identical values can stand only once. Like-named read-outs stand apart in the source and are kept apart here. One block for each binder: values may come before it.

How the values were obtained:
[1] = molecular target: T1, recombinant E. coli-expressed human IL-13 (human, UniProt P35225 35-146); assay: SPR
T1 construct: made and purified at GSK; also called Interleukin-13; rhIL-13

[2] = molecular target: T1, recombinant E. coli-expressed human …; assay: cell-based or functional assay
[3] = molecular target: T2, recombinant E. coli-expressed cynomolgus IL-13 (cynomolgus, UniProt Q0PW92 21-132); assay: cell-based or functional assay
[4] = molecular target: T3, recombinant E. coli-expressed human IL-4 (human, UniProt P05112 25-153); assay: SPR
T3 construct: made and purified at GSK; also called Interleukin-4; rhIL-4
T3 sequence: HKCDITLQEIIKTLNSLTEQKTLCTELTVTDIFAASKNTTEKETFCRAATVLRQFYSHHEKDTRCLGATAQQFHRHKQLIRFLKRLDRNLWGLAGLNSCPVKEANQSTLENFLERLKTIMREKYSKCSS

[5] = molecular target: T1, recombinant E. coli-expressed human …; assay: SPR; remark: listed apart in the source
[6] = molecular target: T2, recombinant E. coli-expressed …; assay: SPR
[7] = molecular target: T1, recombinant E. coli-expressed human …; assay: cell-based or functional assay; remark: listed apart in the source
[8] = molecular target: T2, recombinant E. coli-expressed …; assay: cell-based or functional assay; remark: listed apart in the source
[9] = molecular target: T4, recombinant E. coli-expressed cynomolgus IL-4 (cynomolgus, UniProt P79339 25-153); assay: SPR
T4 construct: also called cyno IL-4
T4 sequence (looked up): T3 sequence with E26K, V29I, F33L

[10] = molecular target: T2, recombinant E. coli-expressed …; assay: SPR; remark: listed apart in the source
[11] = molecular target: T3, recombinant E. coli-expressed human IL-4; assay: SPR stoichiometry
[12] = molecular target: T1, recombinant E. coli-expressed human …; assay: SPR stoichiometry
[13] = molecular target: T1, recombinant E. coli-expressed human …; assay: SPR exp 1
[14] = molecular target: T3, recombinant E. coli-expressed human IL-4; assay: SPR exp 1
[15] = molecular target: T3, recombinant E. coli-expressed human IL-4; assay: SPR, purified
[16] = molecular target: T1, recombinant E. coli-expressed human …; assay: SPR, purified
[17] = molecular target: T3, recombinant E. coli-expressed human IL-4; assay: SPR exp 2
[18] = molecular target: T1, recombinant E. coli-expressed human …; assay: SPR exp 2
[19] = molecular target: T5, recombinant human HER2 (human, UniProt P04626 23-652, limits assumed); assay: ELISA
T5 construct: bought

[20] = molecular target: T1, recombinant E. coli-expressed human …; assay: ELISA, IL-13 binding to IL13Ralpha2/Fc
[21] = molecular target: T1, recombinant E. coli-expressed human …; assay: cell-based or functional assay; remark: listed apart in the source
[22] = molecular target: T2, recombinant E. coli-expressed …; assay: cell-based or functional assay; remark: listed apart in the source
[23] = molecular target: T3, recombinant E. coli-expressed human IL-4; assay: cell-based or functional assay
[24] = molecular target: T3, recombinant E. coli-expressed human IL-4; assay: ELISA, IL-4 binding to IL4Ralpha-Fc

B1: BPC1615 (bispecific antibody, human IgG1, kappa)
heavy: not shown
light: EIVLTQSPATLSLSPGERATLSCRASQNISDYLHWYQQKPGQAPRLLIYYASQSISGIPARFSGSGSGTDFTLTISSLEPEDFAVYYCQNGHSFPLTFGGGTKVEIKRTVAAPSVFIFPPSDEQLKSGTASVVCLLNNFYPREAKVQWKVDNALQSGNSQESVTEQDSKDSTYSLSSTLTLSKADYEKHKVYACEVTHQGLSSPVTKSFNRGEC
notes: also called 656H TVAAPS-210 & 656kappa
Kd [1]: 0.085 nM

B2: PascoH-TVAAPS-567 (bispecific antibody, human IgG1, kappa)
heavy: not shown
light: DIVLTQSPSSLSASVGDRVTITCKASQSVDYDGDSYMNWYQQKPGKAPKLLIYAASNLESGIPSRFSGSGSGTDFTFTISSLQPEDIATYYCQQSNEDPPTFGQGTKVEIKRTVAAPSVFIFPPSDEQLKSGTASVVCLLNNFYPREAKVQWKVDNALQSGNSQESVTEQDSKDSTYSLSSTLTLSKADYEKHKVYACEVTHQGLSSPVTKSFNRGEC
Mean ND50 (TF-1) [2]: 2.06 nM
Mean ND50 (TF-1) [3]: 38.2 nM
binding result [4]: binds
Kd [5]: 0.038 nM
koff [5]: 1.7e-05 s⁻¹
kon [5]: 446000 M⁻¹ s⁻¹
Kd [6]: 8.8 nM
koff [6]: 0.00522 s⁻¹
kon [6]: 592000 M⁻¹ s⁻¹

B4: PascoH-474 (bispecific antibody, human IgG1, kappa)
heavy: not shown
light: B2 light
notes: also called BPC1000
Stoichiometry [11]: 1.8
Stoichiometry [12]: 1.9
Kd [9]: 0.0439 nM
koff [9]: 8.14e-05 s⁻¹
kon [9]: 1.85e+06 M⁻¹ s⁻¹
Kd [10]: 18.6 nM
koff [10]: 0.0109 s⁻¹
kon [10]: 586000 M⁻¹ s⁻¹
Kd [13]: 0.84 nM
koff [13]: 0.00031 s⁻¹
kon [13]: 360000 M⁻¹ s⁻¹
Kd [14]: 0.02 nM
koff [14]: 9.4e-05 s⁻¹
kon [14]: 4.8e+06 M⁻¹ s⁻¹
Kd [15]: 0.037 nM
Kd [16]: 0.71 nM

B12: DOM10-53-616 domain antibody (other)
VH: GVQLLESGGGLVQPGGSLRLSCAASGFVFPWYDMGWVRQAPGKGLEWVSSIDWHGKITYYADSVKGRFTISRDNSKNTLYLQMNSLRAEDTAVYYCATAEDEPGYDYWGQGTLVTVSS
notes: anti-IL-13 dAb
IC50 [20]: 5.76 nM
Mean ND50 (TF-1) [2]: 0.536 nM
Mean ND50 (TF-1) [3]: 3.57 nM
Mean ND50 (TF-1) [21]: 0.416 nM
Mean ND50 (TF-1) [22]: 4.81 nM

B13: DOM9-112-210 domain antibody (other)
VH: EVQLLESGGGLVQPGGSLRLSCAASGFTFRNFGMGWVRQAPGKGLEWVSWIISSGTETYYADSVKGRFTISRDNSKNTLYLQMNSLRAEDTAVYYCAKSLGRFDYWGQGTLVTVSS
notes: anti-IL-4 dAb
Mean IC50 (whole blood phospho-STAT6) [23]: 3.51 nM
IC50 [24]: 36.8 nM

B14: BPC1609 (bispecific antibody, human IgG1, kappa)
heavy: not shown
light: DIVMTQSPLSLPVTPGEPASISCRSSQNIVHINGNTYLEWYLQKPGQSPRLLIYKISDRFSGVPDRFSGSGSGTDFTLKISRVEADDVGIYYCFQGSHVPWTFGQGTKLEIKRTVAAPSVFIFPPSDEQLKSGTASVVCLLNNFYPREAKVQWKVDNALQSGNSQESVTEQDSKDSTYSLSSTLTLSKADYEKHKVYACEVTHQGLSSPVTKSFNRGEC
Kd [1]: 1.01 nM

B15: BPC1612 (bispecific antibody, human IgG1, kappa)
heavy: not shown
light: B14 light
Kd [1]: 0.565 nM

More lines, now with the values ahead:

Mean ND50 (TF-1) [7]: 1.37 nM
Mean ND50 (TF-1) [8]: 21.5 nM
Kd [9]: 0.029 nM
koff [9]: 5.3e-05 s⁻¹
kon [9]: 1.83e+06 M⁻¹ s⁻¹
Kd [10]: 23.8 nM
koff [10]: 0.0114 s⁻¹
kon [10]: 479000 M⁻¹ s⁻¹
B3: PascoH-GS-ASTKGPT-474 2nd GS removed (bispecific antibody, human IgG1, kappa)
heavy: not shown
light: B2 light

Stoichiometry [11]: 1.8
Stoichiometry [12]: 1.9
Kd [13]: 0.67 nM
koff [13]: 0.00026 s⁻¹
kon [13]: 390000 M⁻¹ s⁻¹
Kd [14]: 0.02 nM
koff [14]: 8.6e-05 s⁻¹
kon [14]: 5.1e+06 M⁻¹ s⁻¹
Kd [15]: 0.036 nM
Kd [16]: 0.58 nM
B5: PascoH-G4S-474 (bispecific antibody, human IgG1, kappa)
heavy: not shown
light: B2 light

Mean ND50 (TF-1) [2]: 1.52 nM
Mean ND50 (TF-1) [3]: 33.9 nM
Kd [4]: 4.82 pM
koff [4]: 2.37e-05 s⁻¹
kon [4]: 4.92e+06 M⁻¹ s⁻¹
Kd [5]: 0.747 nM
koff [5]: 0.000169 s⁻¹
kon [5]: 226000 M⁻¹ s⁻¹
Kd [6]: 12.5 nM
koff [6]: 0.0209 s⁻¹
kon [6]: 1.67e+06 M⁻¹ s⁻¹
B6: PascoH-TVAAPS-546 (bispecific antibody, human IgG1, kappa)
heavy: not shown
light: B2 light

Stoichiometry [11]: 1.8
Stoichiometry [12]: 1.8
Kd [17]: 0.063 nM and 0.052 nM
koff [17]: 0.000135 s⁻¹ and 0.000111 s⁻¹
kon [17]: 2.14e+06 M⁻¹ s⁻¹ and 2.13e+06 M⁻¹ s⁻¹
Kd [18]: 0.756 nM and 0.621 nM
koff [18]: 0.000425 s⁻¹ and 0.000347 s⁻¹
kon [18]: 563000 M⁻¹ s⁻¹ and 559000 M⁻¹ s⁻¹
Kd [15]: 0.028 nM
Kd [16]: 1.2 nM
B7: PascoL-G4S-474 (bispecific antibody, human IgG1, kappa)
heavy: not shown
light: DIVLTQSPSSLSASVGDRVTITCKASQSVDYDGDSYMNWYQQKPGKAPKLLIYAASNLESGIPSRFSGSGSGTDFTFTISSLQPEDIATYYCQQSNEDPPTFGQGTKVEIKRTVAAPSVFIFPPSDEQLKSGTASVVCLLNNFYPREAKVQWKVDNALQSGNSQESVTEQDSKDSTYSLSSTLTLSKADYEKHKVYACEVTHQGLSSPVTKSFNRGECGGGGSGVQLLESGGGLVQPGGSLRLSCAASGFTFAWYDMGWVRQAPGKGLEWVSSIDWHGEVTYYADSVKGRFTISRDNSKNTLYLQMNSLRAEDTAVYYCATAEDEPGYDYWGQGTLVTVSS

binding result [19]: binds
B8: BPC1805 (bispecific antibody, human IgG1, kappa)
heavy: not shown
light: DIVMTQSPLSLPVTPGEPASISCRSSQSIVQSNGDTYLEWYLQKPGQSPQLLIYRVSNRFSGVPDRFSGSGSGTDFTLKISRVEAEDVGVYYCFQGSHVPYTFGQGTKLEIKRTVAAPSVFIFPPSDEQLKSGTASVVCLLNNFYPREAKVQWKVDNALQSGNSQESVTEQDSKDSTYSLSSTLTLSKADYEKHKVYACEVTHQGLSSPVTKSFNRGEC
notes: anti-HER2 Affibody fusion; also called antiIGF1R Heavy Chain-GS-AFFI

binding result [19]: binds
B9: BPC1807 (bispecific antibody, human IgG1, kappa)
heavy: not shown
light: B8 light
notes: anti-HER2 DARPin fusion; also called antiIGF1R Heavy Chain-GS-DRPN

binding result [19]: binds
B10: BPC1806 (bispecific antibody, human IgG1, kappa)
heavy: not shown
light: B8 light
notes: anti-HER2 Affibody fusion

binding result [19]: binds
B11: BPC1808 (bispecific antibody, human IgG1, kappa)
heavy: not shown
light: B8 light
notes: anti-HER2 DARPin fusion
